In series [1] the target is LbCas12a (cryo-EM, assembled with crRNA) (UniProt A0A5S8WF58 1-1228). The series is described as follows: cryo-EM structure.
The target in series [2] is LbCas12a (UniProt A0A5S8WF58 1-1228). Put plainly: thermal shift.

The values below come from article PMC12216424.

B1: 12a-crRNA (structured_RNA)
RNA: UAAUUUCUACUAAGUGUAGAUGGGGUUUGAGGUCCAUUACA
As for B1, in series [1], the binding result is “binds”.

B2: PS DNA1 (XNA)
DNA: GCGACTCGGTTCTTGCCTAAG
modifications: all 20 linkages phosphorothioate
Turning to B2, the binding result in series [2] is “binds”.
